This note sets out measurements from patent CN115433274A (BEIJING KENUO XINCHENG TECH CO LTD, dated 2022).

The chains are these.
B1: 食蟹猴SA重组蛋白 (other)
chain: DTHKSEVAHRFKDLGEEHFKGLVLVAFSQYLQQCPFEEHVKLVNEVTEFAKTCVADESAENCDKSLHTLFGDKLCTVATLRETYGEMADCCAKQEPERNECFLQHKDDNPNLPPLVRPEVDVMCTAFHDNEATFLKKYLYEVARRHPYFYAPELLFFAARYKAAFAECCQAADKAACLLPKLDELRDEGKASSAKQRLKCASLQKFGDRAFKAWAVARLSQKFPKAEFAEVSKLVTDLTKVHTECCHGDLLECADDRADLAKYMCENQDSISSKLKECCDKPLLEKSHCLAEVENDEMPADLPSLAADYVESKDVCKNYAEAKDVFLGMFLYEYARRHPDYSVMLLLRLAKAYEATLEKCCAAADPHECYAKVFDEFQPLVEEPQNLVKQNCELFEQLGEYKFQNALLVRYTKKVPQVSTPTLVEVSRNLGKVGAKCCKLPEAKRMPCAEDYLSVVLNRLCVLHEKTPVSEKVTKCCTESLVNRRPCFSALELDEAYVPKAFNAETFTFHADMCTLSEKEKQVKKQTALVELVKHKPKATKEQLKGVMDNFAAFVEKCCKADDKEACFAEEGPKFVAASQAALA
notes: Bought product; also called cyno SA; Cynomolgus serum albumin
B2: 噬菌体展示的纳米抗体2MG6 (VHH)
VHH: QVQLQESGGGLVQAGGSLRLSCAASGSTYPTAYIAWFRQAPGKEREGVAGIYTVGGSTFYTDSVKGRFTISRDNAKNTVYLLMNSLKPEDTAMYFCAAGRTDTAKLRDPRSFGYWGQGTQVTVSS
notes: the phage fusion part is not described; also called 克隆2MG6

Assay [1] has as its target T1, 对照抗体ALB8 (ALB8重组蛋白, VHH-hFc) (human).
T1 construct: Control anti-HSA nanobody expressed as fusion with human Fc; also called 对照纳米抗体ALB8
The assay is described as follows: ELISA, albumin coated at 1 μg/mL, HRP-anti-human Fc. For orientation: ELISA stands for enzyme-linked immunosorbent assay.

The next assay addresses T2, 牛血清白蛋白(BSA) (bovine, UniProt P02769 25-607).
T2 construct: also called Bovine serum albumin
The assay is described as follows: phage ELISA, phage supernatant on BSA-coated plate.

The target in the assay “食蟹猴SA重组蛋白” is B1. In words: phage ELISA, phage supernatant on cyno SA-coated plate.

T1 sequence (chain, as listed by the source limits assumed): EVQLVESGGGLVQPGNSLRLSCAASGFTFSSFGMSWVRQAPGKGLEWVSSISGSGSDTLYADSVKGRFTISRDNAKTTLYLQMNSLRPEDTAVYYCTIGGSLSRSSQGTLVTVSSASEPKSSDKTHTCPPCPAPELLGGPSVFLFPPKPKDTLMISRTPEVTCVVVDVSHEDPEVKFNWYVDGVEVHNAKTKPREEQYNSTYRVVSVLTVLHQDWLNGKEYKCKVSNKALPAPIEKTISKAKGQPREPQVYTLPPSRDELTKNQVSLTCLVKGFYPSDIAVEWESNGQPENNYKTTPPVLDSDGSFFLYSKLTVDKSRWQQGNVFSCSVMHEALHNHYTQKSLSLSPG

Consider B1, for which the binding result in assay [1] is given as “binds”.
In the case of B2, the binding result is recorded as “no binding” with 牛血清白蛋白(BSA) and “binds” in the assay with 食蟹猴SA重组蛋白.
